In patent US20220098323A1 (US Dept. of Health and Human Services, published 2022):

T1: cell-surface GPC1 on GPC1-expressing tumor cells (2B9 KLM, H8, T3M4) (UniProt P35052 24-530, limits assumed)
T1 sequence (looked up): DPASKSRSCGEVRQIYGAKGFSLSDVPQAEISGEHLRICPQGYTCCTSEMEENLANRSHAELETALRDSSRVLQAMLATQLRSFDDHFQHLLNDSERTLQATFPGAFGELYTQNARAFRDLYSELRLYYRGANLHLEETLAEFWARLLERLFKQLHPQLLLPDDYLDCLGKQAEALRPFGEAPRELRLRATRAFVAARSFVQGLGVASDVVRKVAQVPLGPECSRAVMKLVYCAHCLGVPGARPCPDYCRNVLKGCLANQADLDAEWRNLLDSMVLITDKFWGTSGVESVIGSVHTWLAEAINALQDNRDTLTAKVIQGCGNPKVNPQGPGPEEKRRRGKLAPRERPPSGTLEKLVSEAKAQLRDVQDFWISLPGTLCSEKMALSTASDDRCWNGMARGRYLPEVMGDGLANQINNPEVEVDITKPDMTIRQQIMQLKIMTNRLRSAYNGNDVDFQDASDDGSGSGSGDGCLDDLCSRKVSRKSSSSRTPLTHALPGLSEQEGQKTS

T2: human glypican-1 (GPC1) (human, UniProt P35052 24-530)
T2 construct: also called human GPC1; HuGPC1
T2 sequence (looked up): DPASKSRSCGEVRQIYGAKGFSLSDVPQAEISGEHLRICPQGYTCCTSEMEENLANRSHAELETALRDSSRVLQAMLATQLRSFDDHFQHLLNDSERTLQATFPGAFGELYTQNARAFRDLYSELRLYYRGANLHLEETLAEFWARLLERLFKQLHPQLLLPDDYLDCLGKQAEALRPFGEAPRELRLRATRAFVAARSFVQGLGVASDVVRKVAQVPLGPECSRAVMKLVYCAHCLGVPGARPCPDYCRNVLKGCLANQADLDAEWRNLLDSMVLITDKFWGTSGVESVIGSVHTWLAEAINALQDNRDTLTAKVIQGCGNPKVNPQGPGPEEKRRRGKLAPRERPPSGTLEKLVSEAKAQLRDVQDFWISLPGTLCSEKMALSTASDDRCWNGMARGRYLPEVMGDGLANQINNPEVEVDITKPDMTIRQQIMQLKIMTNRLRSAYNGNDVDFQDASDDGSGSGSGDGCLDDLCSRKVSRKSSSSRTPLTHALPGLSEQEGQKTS

T3: mouse GPC1 (mouse, UniProt Q9QZF2 24-529, limits assumed)
T3 construct: also called MsGPC1
T3 sequence (looked up): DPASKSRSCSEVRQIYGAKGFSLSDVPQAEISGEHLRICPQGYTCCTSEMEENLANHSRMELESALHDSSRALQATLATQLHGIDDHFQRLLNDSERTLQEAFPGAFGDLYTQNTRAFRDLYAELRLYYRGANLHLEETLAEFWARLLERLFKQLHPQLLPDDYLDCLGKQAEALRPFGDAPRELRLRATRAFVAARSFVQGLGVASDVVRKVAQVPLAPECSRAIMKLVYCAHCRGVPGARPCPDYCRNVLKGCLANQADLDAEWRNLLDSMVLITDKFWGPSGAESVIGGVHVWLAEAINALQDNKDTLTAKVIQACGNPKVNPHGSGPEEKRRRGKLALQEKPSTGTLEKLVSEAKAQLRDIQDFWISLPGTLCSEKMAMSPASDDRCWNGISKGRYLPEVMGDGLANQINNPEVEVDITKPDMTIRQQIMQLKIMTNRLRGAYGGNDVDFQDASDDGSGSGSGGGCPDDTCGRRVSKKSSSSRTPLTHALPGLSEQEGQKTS

T4: human GPC2 (human, UniProt Q8N158 24-554, limits assumed)
T4 sequence (looked up): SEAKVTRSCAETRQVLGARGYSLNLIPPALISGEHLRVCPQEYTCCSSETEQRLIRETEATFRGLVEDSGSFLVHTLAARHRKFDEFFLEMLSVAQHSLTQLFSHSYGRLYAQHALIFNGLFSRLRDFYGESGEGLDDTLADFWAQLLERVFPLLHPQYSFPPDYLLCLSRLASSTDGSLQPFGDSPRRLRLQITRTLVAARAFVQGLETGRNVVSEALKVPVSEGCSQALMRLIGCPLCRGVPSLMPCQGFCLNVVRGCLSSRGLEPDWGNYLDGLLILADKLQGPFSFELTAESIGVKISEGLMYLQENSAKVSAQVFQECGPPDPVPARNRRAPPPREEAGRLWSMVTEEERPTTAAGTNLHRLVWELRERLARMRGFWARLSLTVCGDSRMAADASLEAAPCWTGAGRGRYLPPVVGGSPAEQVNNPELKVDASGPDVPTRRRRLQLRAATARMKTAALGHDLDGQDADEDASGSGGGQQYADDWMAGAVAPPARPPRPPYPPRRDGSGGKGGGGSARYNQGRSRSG

T5: human GPC5 (printed as 'GPCS') (human, UniProt P78333 25-554, limits assumed)
T5 construct: The text prints 'GPCS'
T5 sequence (looked up): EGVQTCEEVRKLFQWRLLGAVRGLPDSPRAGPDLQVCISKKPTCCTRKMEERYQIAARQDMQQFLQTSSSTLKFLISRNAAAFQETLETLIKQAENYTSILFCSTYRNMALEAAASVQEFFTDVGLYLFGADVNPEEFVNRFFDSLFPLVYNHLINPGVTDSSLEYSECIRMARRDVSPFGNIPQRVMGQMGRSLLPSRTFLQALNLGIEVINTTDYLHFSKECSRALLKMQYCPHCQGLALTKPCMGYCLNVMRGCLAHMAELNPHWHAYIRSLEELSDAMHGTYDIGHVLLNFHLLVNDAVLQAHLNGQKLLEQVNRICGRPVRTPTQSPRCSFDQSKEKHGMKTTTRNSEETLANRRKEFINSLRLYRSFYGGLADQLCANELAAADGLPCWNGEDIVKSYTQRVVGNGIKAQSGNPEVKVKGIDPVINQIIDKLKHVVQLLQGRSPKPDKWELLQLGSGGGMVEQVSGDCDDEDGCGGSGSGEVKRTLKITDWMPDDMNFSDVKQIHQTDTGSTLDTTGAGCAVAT

T6: human GPC6 (human, UniProt Q9Y625 24-529, limits assumed)
T6 sequence (looked up): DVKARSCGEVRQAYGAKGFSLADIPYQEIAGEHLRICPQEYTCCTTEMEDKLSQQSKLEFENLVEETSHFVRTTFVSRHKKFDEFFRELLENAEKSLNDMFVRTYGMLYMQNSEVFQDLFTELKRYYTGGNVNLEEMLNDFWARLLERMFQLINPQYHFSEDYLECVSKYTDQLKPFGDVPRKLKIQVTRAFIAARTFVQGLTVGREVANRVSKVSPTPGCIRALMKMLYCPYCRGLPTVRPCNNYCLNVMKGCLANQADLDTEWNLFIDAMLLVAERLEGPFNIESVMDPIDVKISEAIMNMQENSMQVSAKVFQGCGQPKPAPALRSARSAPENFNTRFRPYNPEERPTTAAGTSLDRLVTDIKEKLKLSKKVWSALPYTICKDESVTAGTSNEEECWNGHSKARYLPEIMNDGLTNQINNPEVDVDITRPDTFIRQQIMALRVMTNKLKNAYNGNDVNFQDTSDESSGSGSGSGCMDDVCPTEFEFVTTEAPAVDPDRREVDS


Key:
[1] = biological target: T1, cell-surface GPC1 on GPC1-expressing …
human glypican-1 (GPC1) [2] = biological target: T2, human glypican-1 (GPC1); test: Octet analysis
human glypican-1 (GPC1) [3] = biological target: T2, human glypican-1 (GPC1); test: Octet kinetic analysis
human glypican-1 (GPC1) [4] = biological target: T2, human glypican-1 (GPC1); test: Octet kinetic analysis (column Kdis)
human glypican-1 (GPC1) [5] = biological target: T2, human glypican-1 (GPC1); test: ELISA on GPC1, OD450 against concentration
human glypican-1 (GPC1) [6] = biological target: T2, human glypican-1 (GPC1); test: Octet kinetic analysis; remark: listed apart in the source
mouse GPC1 = biological target: T3, mouse GPC1; test: monoclonal phage ELISA
human GPC2 [7] = biological target: T4, human GPC2; test: monoclonal phage ELISA
human GPC3 [8] = biological target: T7, human GPC3 (human, UniProt P51654 25-559, limits assumed); test: monoclonal phage ELISA
T7 sequence (P51654 25-559 limits assumed): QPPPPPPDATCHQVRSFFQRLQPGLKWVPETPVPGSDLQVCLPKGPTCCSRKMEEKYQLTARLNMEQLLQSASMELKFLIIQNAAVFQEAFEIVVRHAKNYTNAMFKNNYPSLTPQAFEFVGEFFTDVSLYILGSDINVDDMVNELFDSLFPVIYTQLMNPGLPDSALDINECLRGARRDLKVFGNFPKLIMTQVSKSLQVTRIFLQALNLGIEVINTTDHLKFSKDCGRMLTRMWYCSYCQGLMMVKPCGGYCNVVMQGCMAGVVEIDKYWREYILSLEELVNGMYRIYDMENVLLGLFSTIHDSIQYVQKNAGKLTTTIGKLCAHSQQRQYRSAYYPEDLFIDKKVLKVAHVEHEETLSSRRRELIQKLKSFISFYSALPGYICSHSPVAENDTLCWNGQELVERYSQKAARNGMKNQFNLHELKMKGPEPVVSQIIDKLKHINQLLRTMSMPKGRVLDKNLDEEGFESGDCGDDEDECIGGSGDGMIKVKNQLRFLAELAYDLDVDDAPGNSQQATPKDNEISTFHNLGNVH

[9] = biological target: T5, human GPC5 (printed as 'GPCS'); test: monoclonal phage ELISA
human GPC6 [10] = biological target: T6, human GPC6; test: monoclonal phage ELISA
human GPC2 [11] = biological target: T4, human GPC2; test: ELISA
human GPC3 [12] = biological target: T7, human GPC3; test: ELISA
[13] = biological target: T5, human GPC5 (printed as 'GPCS'); test: ELISA
human GPC6 [14] = biological target: T6, human GPC6; test: ELISA
human glypican-1 (GPC1) [15] = biological target: T2, human glypican-1 (GPC1); test: Octet kinetic analysis; remark: listed apart in the source

| Binder | EC50 [1] [nM] | Kd (human glypican-1 (GPC1) [2]) [nM] | Kd (human glypican-1 (GPC1) [3]) [nM] | kon (human glypican-1 (GPC1) [3]) [M⁻¹ s⁻¹] | koff (human glypican-1 (GPC1) [4]) [s⁻¹] | EC50 (human glypican-1 (GPC1) [5]) [nM] | Kd (human glypican-1 (GPC1) [6]) [nM] | Kd (human glypican-1 (GPC1) [15]) [nM] | further results |
| --- | --- | --- | --- | --- | --- | --- | --- | --- | --- |
| D4-LR immunotoxin (other) MQVQLVESGGGLVQPGGSLRLSCVASGYSYSIGYMAWFRQAPGKERAWVASRYTGDGGAVFDDAVKGRFTTSQESAGNTFDLQMDSLKPEDTAMYYCAAKGPGFGRWEYWGRGTQVTVSSKLKASGGRHRQPRGWEQLGGGGGSPTGAEFLGDGGDVSFSTRGTQNWTVERLLQAHRQLEERGYVFVGYHGTFLEAAQSIVFGGVRARSQDLDAIWRGFYIAGDPALAYGYAQDQEPDARGRIRNGALLRVYVPRSSLPGFYRTSLTLAAPEAAGEVERLIGHPLPLRLDAITGPEEEGGRLETILGWPLAERTVVIPSAIPTDPRNVGGDLDPSSIPDKEQAISALPDYASQPGKPPREDLK | 8.1 | 6.3 | 6.25 | 350000 | 0.00218 | 4.3 | – | – | – |
| camel single-domain antibody D4 (VHH, also called D4 antibody; VHH antibody D4) VHH: QVQLVESGGGLVQPGGSLRLSCVASGYSYSIGYMAWFRQAPGKERAWVASRYTGDGGAVFDDAVKGRFTTSQESAGNTFDLQMDSLKPEDTAMYYCAAKGPGFGRWEYWGRGTQVTVSS | – | – | – | – | – | – | 1.3 | – | binding result (mouse GPC1): binds; binding result (human GPC2 [7]): no binding; binding result (human GPC3 [8]): no binding; binding result [9]: no binding; binding result (human GPC6 [10]): no binding |
| HM2-LR immunotoxin (other) MEVQLQQSGAELVRPGASVKLSCTASGFNIKDDYMHWVKQRPEQGLEWIGWIDPENGDTEYASKFQGKATITADTSSNTAYLQLSSLTSEDTAVYYCTRSSVGYWGQGTTLTVSSGGGGSGGGGSGGGGSDVVMTQTPLSLPVSLGDQASISCRSSQSLVHSNGNTYLHWYLQKPGQSPKLLIYKVSNRFSGVPDRFSGSGSGTYFTLKISRVEAEDLGVYFCSQRTHVPYTFGGGTKLEIKKLKASGGRHRQPRGWEQLGGGGGSPTGAEFLGDGGDVSFSTRGTQNWTVERLLQAHRQLEERGYVFVGYHGTFLEAAQSIVFGGVRARSQDLDAIWRGFYIAGDPALAYGYAQDQEPDARGRIRNGALLRVYVPRSSLPGFYRTSLTLAAPEAAGEVERLIGHPLPLRLDAITGPEEEGGRLETILGWPLAERTVVIPSAIPTDPRNVGGDLDPSSIPDKEQAISALPDYASQPGKPPREDLK | – | 6.9 | 6.94 | 297000 | 0.00206 | – | – | – | – |
| mouse monoclonal antibody HM2 (antibody, V domains shown, Mouse hybridoma antibody; also called HM2 antibody; HM2 anti-GPC1 monoclonal antibody) VH: EVQLQQSGAELVRPGASVKLSCTASGFNIKDDYMHWVKQRPEQGLEWIGWIDPENGDTEYASKFQGKATITADTSSNTAYLQLSSLTSEDTAVYYCTRSSVGYWGQGTTLTVSS VL: DVVMTQTPLSLPVSLGDQASISCRSSQSLVHSNGNTYLHWYLQKPGQSPKLLIYKVSNRFSGVPDRFSGSGSGTYFTLKISRVEAEDLGVYFCSQRTHVPYTFGGGTKLEIK | – | – | – | – | – | – | 1.2 | – | binding result (human GPC2 [11]): no binding; binding result (human GPC3 [12]): no binding; binding result [13]: no binding; binding result (human GPC6 [14]): no binding |
| D4-AAA-D4-LR immunotoxin (other, also called bivalent D4 immunotoxin; D4-D4-LR) MQVQLVESGGGLVQPGGSLRLSCVASGYSYSIGYMAWFRQAPGKERAWVASRYTGDGGAVFDDAVKGRFTTSQESAGNTFDLQMDSLKPEDTAMYYCAAKGPGFGRWEYWGRGTQVTVSSAAAQVQLVESGGGLVQPGGSLRLSCVASGYSYSIGYMAWFRQAPGKERAWVASRYTGDGGAVFDDAVKGRFTTSQESAGNTFDLQMDSLKPEDTAMYYCAAKGPGFGRWEYWGRGTQVTVSSKLKASGGRHRQPRGWEQLGGGGGSPTGAEFLGDGGDVSFSTRGTQNWTVERLLQAHRQLEERGYVFVGYHGTFLEAAQSIVFGGVRARSQDLDAIWRGFYIAGDPALAYGYAQDQEPDARGRIRNGALLRVYVPRSSLPGFYRTSLTLAAPEAAGEVERLIGHPLPLRLDAITGPEEEGGRLETILGWPLAERTVVIPSAIPTDPRNVGGDLDPSSIPDKEQAISALPDYASQPGKPPREDLK | 1.9 | – | – | – | – | 0.2 | – | 0.09 | – |
| D4-GGS-D4-LR immunotoxin (other, also called bivalent D4 immunotoxin; D4-D4-LR) MQVQLVESGGGLVQPGGSLRLSCVASGYSYSIGYMAWFRQAPGKERAWVASRYTGDGGAVFDDAVKGRFTTSQESAGNTFDLQMDSLKPEDTAMYYCAAKGPGFGRWEYWGRGTQVTVSSGGSQVQLVESGGGLVQPGGSLRLSCVASGYSYSIGYMAWFRQAPGKERAWVASRYTGDGGAVFDDAVKGRFTTSQESAGNTFDLQMDSLKPEDTAMYYCAAKGPGFGRWEYWGRGTQVTVSSKLKASGGRHRQPRGWEQLGGGGGSPTGAEFLGDGGDVSFSTRGTQNWTVERLLQAHRQLEERGYVFVGYHGTFLEAAQSIVFGGVRARSQDLDAIWRGFYIAGDPALAYGYAQDQEPDARGRIRNGALLRVYVPRSSLPGFYRTSLTLAAPEAAGEVERLIGHPLPLRLDAITGPEEEGGRLETILGWPLAERTVVIPSAIPTDPRNVGGDLDPSSIPDKEQAISALPDYASQPGKPPREDLK | 3.8 | – | – | – | – | 0.1 | – | 0.08 | – |
